Key:
endogenous IRF5 = endogenous IRF5 (Homo sapiens, UniProt Q13568); assay type: cell-based
IRF5 [1] = target: T1, IRF5 (Homo sapiens, UniProt Q13568); assay type: cell-based
IRF5 [2] = target: T1, IRF5; assay type: cell-based; remark: listed apart in the source
IRF5 [3] = target: T1, IRF5; assay type: cell-based; remark: listed apart in the source
[4] = target: wild-type (WT) IRF5, tagged with either His or biotin at the C terminus (human); experiment: FRET or BRET
[5] = target: IRF5 [change], tagged with either His or biotin (human); experiment: FRET or BRET

Molecule | in-cell FRET signal with TRITC-IRF5 (endogenous IRF5) | inhibition of R848-induced IRF5 nuclear translocation in CD14+ monocytes (IRF5 [1]) | inhibition of R848-induced IRF5 nuclear translocation in CD19+ B cells (IRF5 [2]) | effect on R848-induced IRF5 homodimerization (IRF5 [3]) | Kd [4] [µM] | IC50 [5] [µM]
Ac-IKVMWPILFIIKLVHSDKKI-NH2 [IRF5-CPP8] | minimal FRET signal | neither peptide provided IRF5-specific inhibition | neither peptide provided IRF5-specific inhibition | Neither of these two peptides inhibited |  | 
IRF5-CPP9: Negative control for IRF5-CPP5; lacks the IRF5-specific sequences (MANLGYWLLALFVTMWTDVGLCKKRPKP) | minimal FRET signal | neither peptide provided IRF5-specific inhibition | neither peptide provided IRF5-specific inhibition | Neither of these two peptides inhibited |  | 
wild-type (WT) IRF5, tagged with either His or biotin at the C terminus (natural protein) |  |  |  |  | 4.21 | 
Ac-IRLQISNPYLKFIPLKRAIWLIK-NH2 [IRF5-CPP1] |  |  |  |  |  | > 75

— publication PMC7228753 (Science Advances, 2020)
